Assay [1] has as its target T1, human TNFR1-Fc fusion protein (human, UniProt P19438 29-211).
T1 construct: range 29-211; Made in stably transfected HEK293 cells; coated on ELISA plates or immobilised on QCM chips; also called huTNFR1-Fc; human TNFR-Fc; not shown: Fc part from vector pSecTagL1-Fc
T1 sequence (looked up): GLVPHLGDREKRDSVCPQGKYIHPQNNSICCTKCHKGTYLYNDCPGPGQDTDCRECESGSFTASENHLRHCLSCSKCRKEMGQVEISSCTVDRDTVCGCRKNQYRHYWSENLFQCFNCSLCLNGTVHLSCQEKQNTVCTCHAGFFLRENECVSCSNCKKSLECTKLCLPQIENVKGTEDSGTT
The experiment in a line: QCM, human TNFR1-Fc, moderate receptor density (86 Hz), biphasic fit, koff1 (low-affinity part). Here is the method: (§1) Real-time binding dynamics in protein-protein interactions were determined by quartz crystal microbalance measurements (A-100 C-Fast or Cell-200 C-Fast, Attana, Stockholm, Sweden). One of the binding partners (ligand, e.g. TNFR1-Fc) was chemically immobilized on a carboxyl sensor chip according to the manufacturer's protocol at different densities (nearly 200 Hz in the case of saturating conditions to confirm previously published results and 50-100 Hz, in particular at about 50 Hz, to establish conditions of lower receptor density, better resembling the situation on the cellular surface). Binding experiments were performed with samples (analyte) diluted in PBST (PBS, 0.1% Tween 20) at pH 7.4 with a flow rate of 25 µl/min at 37° C. The chip was regenerated with 25 µl 5 mM NaOH or 20 mM glycine, pH 2.0. Every third measurement, an injection of running buffer was measured which was subtracted from the binding curve. Data were collected using the software provided by Attana for the particular device and analyzed by Attaché Office Evaluation software (Attana, Stockholm, Sweden) and TraceDrawe (ridgview instruments, Vange, Sweden).

Assay [2] addresses T1, human TNFR1-Fc fusion protein. Put plainly: QCM, human TNFR1-Fc immobilised, high receptor density (195 Hz). Here is the method: FIG. 1. […] Applied were triplicates of five concentrations between 3.9 nM and 62.5 nM.
as §1

The target is the same in assay [3]. The experiment in a line: ELISA on coated huTNFR1-Fc, antibody titrated, signal as Binding [%]. Here is the method:
FIG. 13. […] Increasing concentrations were tested for their binding to huTNFR1-Fc in ELISA (n=3, mean±SD).
(§2) Microtiter plates were coated with 100 µl of the indicated protein (1 µg/ml in PBS, see Table 3.3) and incubated at 4° C. over night. The residual binding sites were blocked with 2% MPBS (skim milk in PBS, 200 µl per well) at room temperature for 2 hours and subsequently washed twice with PBS. 100 µl of the samples diluted in 2% MPBS were incubated at room temperature for 1 hour prior to the last incubation step with 100 µl of the HRP conjugated detection antibodies in 2% MPBS. In the case of competition experiments, both analyzed protein samples were prepared individually (either titrated or diluted to a single concentration) and mixed before they were applied to the plate. Bound protein was detected with 100 µl TMB substrate solution, the HRP-reaction was stopped by the addition of 50 µl 1 M H2SO4 and the absorption at the wavelength of 450 nm was measured using the Infinite microtiter plate reader (TECAN, Maennedorf, Switzerland). Between each incubation step and in advance of the detection, the plates were washed three times with PBST and twice with PBS.

Assay [4] shares this target. Put plainly: ELISA on coated human TNFR1-Fc, reference curve next to Fv13.7-Fckih0DS. As for the experimental part: as §2
For orientation: In an ELISA, binding on a coated surface is turned into a signal by an enzyme label.

Assay [5] shares this target. Put plainly: QCM, human TNFR1-Fc immobilised, low receptor density (48 Hz). As for the experimental part: as §1
The target of assay [6] is T2, human TNFR1 on cells (HT1080, HeLa, Kym-1) (human, UniProt P19438 30-455).
T2 sequence (looked up): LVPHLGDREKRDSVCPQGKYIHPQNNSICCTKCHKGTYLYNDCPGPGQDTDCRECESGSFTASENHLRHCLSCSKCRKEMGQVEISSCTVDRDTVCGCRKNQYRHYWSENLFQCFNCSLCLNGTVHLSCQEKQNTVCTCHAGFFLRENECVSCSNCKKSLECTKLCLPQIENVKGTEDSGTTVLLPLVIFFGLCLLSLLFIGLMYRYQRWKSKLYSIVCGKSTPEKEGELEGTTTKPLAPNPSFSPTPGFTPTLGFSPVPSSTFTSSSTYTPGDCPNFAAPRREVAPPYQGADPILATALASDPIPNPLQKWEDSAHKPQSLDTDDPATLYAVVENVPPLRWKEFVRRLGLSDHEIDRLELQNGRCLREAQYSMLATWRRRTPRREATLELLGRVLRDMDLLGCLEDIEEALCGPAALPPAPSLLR
Put plainly: cell-based or functional assay.

Assay [7] deals with T1, human TNFR1-Fc fusion protein. The experiment in a line: ELISA, human TNFR1-Fc.
Assay [8] shares this target. The experiment in a line: QCM, human TNFR1-Fc, moderate receptor density (86 Hz), biphasic fit, KD2 (high-affinity part). Here is the method:
as §1

Assay [9] shares this target. Put plainly: QCM, human TNFR1-Fc, moderate receptor density (86 Hz), biphasic fit, kon2 (high-affinity part). As for the experimental part:
as §1

Assay [10] shares this target. The experiment in a line: QCM, human TNFR1-Fc, moderate receptor density (86 Hz), biphasic fit, koff2 (high-affinity part). As for the experimental part: as §1

B1: ATROSAB (antibody, IgG1, V domains shown)
VH: QVQLVQSGAEVKKPGSSVKVSCKASGYTFTDFYINWVRQAPGQGLEWIGEIYPYSGHAYYNEKFKARVTITADKSTSTAYMELSSLRSEDTAVYYCARWDFLDYWGQGTTVTVSS
VL: DIVMTQSPLSLPVTPGEPASISCRSSQSLLHSNGNTYLHWYLQKPGQSPQLLIYTVSNRFSGVPDRFSGSGSGTDFTLKISRVEAEDVGVYYCSQSTHVPYTFGGGTKVEIKR
notes: Humanized full-length IgG1 with a modified Fc region deficient in mediating effector functions (made according to WO2012035141); also called full length IgG ATROSAB
As to B1, the koff in [1] was 0.0219 s⁻¹. For the same molecule, in assay [2], the “Factor (KD high density chip, ATROSAB against H398)” value turned out to be 1.5 fold and binding was characterised by a dissociation constant (Kd) of 0.35 nM. For the same molecule, the “EC50 (read off the curve)” value in [3] is approximately 1 nM. In assay [4], the “EC50 (read off the curve)” value was approximately 0.2 nM. Besides, in assay [5], the “Factor (KD low density chip, ATROSAB against H398)” value turned out to be 2.8 fold; the “Factor (koff low density chip, ATROSAB against H398)” value came out at 7.6 fold; the Kd amounted to 4.5 nM; the “fold faster kon than H398” value was determined as 2.6 fold. Further, in assay [5], the koff came out at 0.0047 s⁻¹. For the same molecule, in [6], the “Factor, IC50 LT (ATROSAB against H398)” value came out at 12 fold; the “Factor, IC50 TNF (ATROSAB against H398)” value was 10 fold; the “IC50, LT [nM] (inhibition of IL-8 release from HT1080 cells induced by LTα)” value came to 7.6 nM; the “IC50, TNF [nM] (inhibition of IL-8 release from HT1080 cells induced by 0.1 nM TNF)” value worked out at 42 nM. Also, the “fold weaker binding (higher EC50) compared with IgG13.7” value in assay [7] is 1.4 fold. Binding in assay [8] was characterised by a dissociation constant (Kd) of 0.38 nM. In [9], this molecule returned an association rate constant (kon) of 1.06e+06 M⁻¹ s⁻¹. Besides, the koff in assay [10] was 0.000407 s⁻¹.

Broadly, the koff is a measure of how fast the partners let go of each other. Lower therefore signals a long-lived complex. Broadly, the Kd is the constant that tells how readily two partners part at equilibrium. Low readings indicate tighter binding, high ones weaker binding. One may read the EC50 (read off the curve) as the concentration that produces a half-maximal response. For orientation: kon means the rate constant with which the complex forms. Read a low kon as slow association.
